Experimental data from patent publication US20190153113A1, “CD39 VASCULAR ISOFORM TARGETING AGENTS” (INNATE PHARMA, priority 2015, published 2019).
One block for each molecule: values may come before it.

Tests used:
CD39 = target: T1, CD39 (Homo sapiens, UniProt P49961); experiment: Inhibition of CD39 enzymatic activity in Ramos cells, AMP production by Maldi TOF mass spectrometry; assay type: cell-based; details: Ramos cells, ARL at 100 nM, Example 7
T1 construct: cells that endogenously express CD39 at their surface, e.g. regulatory T (TReg) cells, B cells, cancer cells, lymphoma cells (e.g. Ramos cells); endogenous in cells; host or cells: Ramos human lymphoma cells
T1 sequence (P49961 1-510): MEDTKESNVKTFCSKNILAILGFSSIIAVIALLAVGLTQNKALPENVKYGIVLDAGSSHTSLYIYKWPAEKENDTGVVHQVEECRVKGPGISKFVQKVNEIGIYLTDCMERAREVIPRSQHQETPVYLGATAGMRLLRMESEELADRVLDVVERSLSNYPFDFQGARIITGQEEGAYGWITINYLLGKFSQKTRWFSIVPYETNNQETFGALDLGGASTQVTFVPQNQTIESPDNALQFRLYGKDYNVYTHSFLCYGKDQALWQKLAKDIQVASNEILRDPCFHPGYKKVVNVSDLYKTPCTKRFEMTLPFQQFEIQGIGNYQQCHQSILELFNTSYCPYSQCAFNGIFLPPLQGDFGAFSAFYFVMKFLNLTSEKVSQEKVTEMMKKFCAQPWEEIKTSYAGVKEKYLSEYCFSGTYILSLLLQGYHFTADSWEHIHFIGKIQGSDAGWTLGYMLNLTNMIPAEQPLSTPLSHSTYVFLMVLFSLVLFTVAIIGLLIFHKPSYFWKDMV
Method: The inhibition of CD39 enzymatic activity by antibodies was evaluated by Maldi TOF mass spectrometry (production of AMP). This assay represents an assay that is relatively insensitive to down-modulation of CD39 expression. […] After washes, cells were incubated with anti-CD39 antibodies, isotype control, or ARL and 50 μM ATP for 30 minutes at 4° C. in PBS. AMP generated is quantified in supernatants by Maldi TOP.
The inhibition of CD39 enzymatic activity by antibodies was evaluated by Maldi TOF mass spectrometry (production of AMP). Briefly, 10^5 Ramos human lymphoma cells were incubated overnight at 37° C. with anti-CD39 antibodies or a chemical CD39 inhibitor (ARL 100 μM). After washes, cells were incubated with anti-CD39 antibodies, isotype control, or ARL and 50 μM ATP for 30 minutes at 4° C. in PBS. AMP generated is quantified in supernatants by Maldi TOP. Antibodies were used at 33 nM and ARL at […].

[1] = target: T2, Recombinant human CD39-L3 (NTPDase3, ENTPD3) (human, UniProt O75355 44-485, limits assumed); experiment: ELISA on coated RechuCD39-L3, OD 450 nm [bottom panel Mouse IgG2a I-391]
T2 construct: Coated in ELISA
T2 sequence: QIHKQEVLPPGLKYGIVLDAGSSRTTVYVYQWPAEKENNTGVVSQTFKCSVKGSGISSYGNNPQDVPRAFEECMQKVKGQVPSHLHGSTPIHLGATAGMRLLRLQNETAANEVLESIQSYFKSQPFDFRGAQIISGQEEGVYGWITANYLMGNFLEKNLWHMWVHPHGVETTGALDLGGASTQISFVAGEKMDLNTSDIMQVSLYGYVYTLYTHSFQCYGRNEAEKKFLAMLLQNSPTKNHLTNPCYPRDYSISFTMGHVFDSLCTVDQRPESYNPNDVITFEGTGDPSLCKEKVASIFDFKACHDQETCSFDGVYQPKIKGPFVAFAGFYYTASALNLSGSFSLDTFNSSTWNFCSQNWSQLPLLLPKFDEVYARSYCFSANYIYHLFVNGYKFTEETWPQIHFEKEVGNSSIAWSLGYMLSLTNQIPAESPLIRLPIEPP
Method: (§1) Wells were washed in TBS Tween 20, and further saturated 2H at RT in TBS Blocking buffer. Dose range concentration of primary antibody was incubated in TBS blocking buffer for 2h at RT. Wells were washed in TBS Tween 20. […] Optical density was measured on Enspire at OD=450.

[2] = target: T3, Recombinant human CD39-L4 (NTPDase5, ENTPD5) (human, UniProt O75356 25-428); experiment: ELISA on coated RechuCD39-L4, OD 450 nm [bottom panel Mouse IgG2a I-391]
T3 construct: Coated in ELISA
T3 sequence: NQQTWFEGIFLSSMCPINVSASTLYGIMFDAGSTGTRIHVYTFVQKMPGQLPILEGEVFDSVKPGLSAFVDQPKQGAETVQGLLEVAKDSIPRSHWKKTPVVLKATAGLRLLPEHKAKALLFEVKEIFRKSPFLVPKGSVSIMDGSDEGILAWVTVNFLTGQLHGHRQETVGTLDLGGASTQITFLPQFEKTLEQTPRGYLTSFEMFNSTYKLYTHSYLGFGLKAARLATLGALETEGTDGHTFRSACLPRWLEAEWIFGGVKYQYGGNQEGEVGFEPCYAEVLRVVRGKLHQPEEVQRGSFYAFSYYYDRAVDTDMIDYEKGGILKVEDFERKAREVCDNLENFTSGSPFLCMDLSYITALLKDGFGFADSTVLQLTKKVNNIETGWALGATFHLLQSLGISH
Method: as §1

[3] = target: T4, Recombinant human CD39 protein (vascular isoform), soluble (human, UniProt P49961 38-478); experiment: ELISA on coated recombinant human CD39 (RechuCD39), HRP secondary antibody, TMB, OD 450 nm [bottom panel Mouse IgG2a I-391]
T4 construct: they are written under this molecule; also called Rec-huCD39; huCD39 protein; not shown: M2 tag added in the C-terminal part
T4 sequence: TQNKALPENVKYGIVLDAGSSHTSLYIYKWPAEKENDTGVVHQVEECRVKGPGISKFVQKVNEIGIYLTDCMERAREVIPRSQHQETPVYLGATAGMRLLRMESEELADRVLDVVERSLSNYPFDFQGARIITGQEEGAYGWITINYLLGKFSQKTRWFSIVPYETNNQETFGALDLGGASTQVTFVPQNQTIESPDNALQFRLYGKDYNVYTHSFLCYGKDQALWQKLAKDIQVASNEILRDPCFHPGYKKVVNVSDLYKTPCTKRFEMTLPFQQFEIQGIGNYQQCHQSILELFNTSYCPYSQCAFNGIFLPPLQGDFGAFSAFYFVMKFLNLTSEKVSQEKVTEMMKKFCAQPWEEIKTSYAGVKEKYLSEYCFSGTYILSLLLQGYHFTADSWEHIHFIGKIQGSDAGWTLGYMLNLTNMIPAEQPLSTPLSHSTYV
Method: as §1

[4] = target: T5, Recombinant human CD39-L2 (NTPDase6, ENTPD6) (human, UniProt O75354 61-484, limits assumed); experiment: ELISA on coated RechuCD39-L2, OD 450 nm [bottom panel Mouse IgG2a I-391]
T5 construct: Coated in ELISA
T5 sequence: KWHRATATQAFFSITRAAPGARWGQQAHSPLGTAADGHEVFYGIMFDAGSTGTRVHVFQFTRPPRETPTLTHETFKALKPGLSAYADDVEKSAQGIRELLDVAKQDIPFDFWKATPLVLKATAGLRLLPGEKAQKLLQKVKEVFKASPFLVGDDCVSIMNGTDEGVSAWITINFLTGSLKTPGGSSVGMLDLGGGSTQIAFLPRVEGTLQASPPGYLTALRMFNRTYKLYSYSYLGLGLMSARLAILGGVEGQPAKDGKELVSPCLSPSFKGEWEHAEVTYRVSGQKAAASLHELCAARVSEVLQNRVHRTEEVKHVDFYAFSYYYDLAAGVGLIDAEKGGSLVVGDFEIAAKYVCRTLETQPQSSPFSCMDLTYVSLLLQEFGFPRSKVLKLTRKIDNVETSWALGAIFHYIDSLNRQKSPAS
Method: as §1

[5] = target: T5, Recombinant human CD39-L2 (NTPDase6, …); experiment: ELISA, recombinant isoform coated at 500 ng/ml or 1 µg/ml
Method: as §1

[6] = target: T3, Recombinant human CD39-L4 (NTPDase5, …); experiment: as above
Method: as §1

[7] = target: T2, Recombinant human CD39-L3 (NTPDase3, …); experiment: as above
Method: as §1

[8] = target: T6, Human CD39 (vascular CD39, NTPDase1, ENTPD1) expressed at the cell surface (human, UniProt P49961 1-510); experiment: flow cytometry on Ramos cells, antibody at 10 µg/ml, GAM-PE
T6 construct: also called huCD39; HEK-huCD39
T6 sequence: T1 sequence (P49961 1-510)

Molecule: CCN(CC)c1ncnc2c1ncn2[C@@H]1O[C@H](COP(=O)(O)OP(=O)(O)C(Br)(Br)P(=O)(O)O)[C@@H](O)[C@H]1O [ARL, reference compound]
- inhibition of AMP generated (CD39): strong inhibition of AMP generated, but resulted in significantly less CD39 blockade than I-391

- binding result [1]: no binding (tested: 50 ug/ml)
- binding result [2]: no binding (tested: 50 ug/ml)
- EC50 (read off the curve) [3]: ~0.08 µg/mL
- binding result [4]: no binding (tested: 50 ug/ml)
B1: Antibody I-391 with Fc domain of mouse IgG2a isotype (MOGA) (antibody, V domains shown)
VH: QIQLVQSGPELKKPGETVKISCKASGYTFRNYGMNWVKQAPGKGLKWMGWINTYTGEPTYADDFKGRFAFSLATSASTAYLQISNLKNEDTATYFCARKAYYGSNYYFDYWGQGTTLTVSS
VL: DIVMTQSHKFMSTSVGDRVSITCKASQDVSTAVAWYQQKPGQSPKLLIYSASYRYTGVPDRFTGSGSGTDFTFTISTVQAEDLAVYYCQQHYTTPPYTFGGGTKLEIK

- binding result [5]: no binding
- binding result [6]: no binding
- binding result [7]: no binding
- binding result [8]: binds
B2: Antibody I-392, recombinant chimeric human IgG1 with heavy chain N297Q mutation (antibody, V domains shown)
VH: QIQLVQSGPEVKKPRETVKISCKASGYTFTHYGMNWVKQAPGKGLKWMGWINTYTGEPTYADDFKGRFAFSLEASASTAYLQINNLKNEDTATYFCARRRYEGNYVFYYFDYWGQGTTLTVSS
VL: DIQMTQSPASLSASVGETVTITCRASENIYSYFSWYQQKQGKSPQLLVYTAKTLAEGVPSRFSGSGSGTQFSLKINSLQPEDFGSYYCQHHYVTPYTFGGGTKLEIK
